Starred links: 1 amine or outer side, 2 acyl side, 3 side chain; linkers in the order of their positions; H or OH if unused. Positions of bridges follow the written chain, without caps; N, C: chain ends. Non-standard residues stand in square brackets, D forms with d. Groups on a side chain read outwards from the residue. No end group written: not given here. Hhc = homohomocysteine, O=C([C@H](CCCS[*:3])N[*:1])[*:2]; εLys = N[C@@H](CCCCN[*:1])C(=O)[*:2]; Asu = N[C@@H](CCCCCC(=O)O)C(=O)O; hCys = N[C@@H](CCS)C(=O)O
T1: CT receptor of human breast tumor cell lines T-47D and MCF-7 (human, UniProt P30988 25-474)
T1 construct: whole, on cells; Native receptor; also called calcitonin receptor
T1 sequence (looked up): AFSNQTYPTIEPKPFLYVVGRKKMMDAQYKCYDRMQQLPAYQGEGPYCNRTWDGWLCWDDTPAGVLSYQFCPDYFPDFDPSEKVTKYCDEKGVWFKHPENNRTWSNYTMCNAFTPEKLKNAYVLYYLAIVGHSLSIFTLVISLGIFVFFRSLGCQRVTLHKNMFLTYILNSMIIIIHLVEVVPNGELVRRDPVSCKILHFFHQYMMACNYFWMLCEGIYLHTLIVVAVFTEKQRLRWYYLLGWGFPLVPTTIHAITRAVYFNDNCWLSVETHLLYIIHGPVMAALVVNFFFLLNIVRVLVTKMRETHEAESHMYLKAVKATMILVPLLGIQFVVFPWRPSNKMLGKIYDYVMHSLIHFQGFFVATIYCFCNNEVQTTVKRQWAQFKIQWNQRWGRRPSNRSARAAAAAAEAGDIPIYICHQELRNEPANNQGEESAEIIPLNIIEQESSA


Legend:
[1] = target: T1, CT receptor of human breast tumor cell …; assay: displacement of 125I-salmon CT, whole MCF-7 cells
Source text: (§1) Assays using microsomal membrane fractions of rat brain and T47D cells (obtained from the American Type Culture Collection, Rockville, Md., ATCC Accession No. HTB-133) were used to identify analogs with high affinity for the CT receptor according to the method of Fisher et al. (1977, *British J. Cancer* 35: 777–784). Briefly, tissue was minced and homogenized. The membranes were washed several times, assayed for protein content and used in the binding assay. […] Both uncomplexed and ReO complexed reagents were tested.
(§2) Similar experiments were performed with additional peptide reagents within the scope of the invention, using whole cells. Binding was determined as described above.

[2] = target: T1, CT receptor of human breast tumor cell …; assay: displacement of 125I-salmon CT, whole T-47D cells
Source text: as §1, §2

[3] = target: T1, CT receptor of human breast tumor cell …; assay: displacement of 125I-salmon CT, T-47D cell membranes
Source text: as §1, §2

Row | Binder | IC50 [1] [nM] | IC50 [2] [nM] | IC50 [3] [nM]
1 | {CH2CO}-SNLST[Hhc]VLGKLSC([CH2CO-εLys-Gly-Cys-Glu-NH2])ELHKLQTYPRTNTGSGTP-NH2 (thioether N-6; also: ReO complex of chelator on Cys13, Oxorhenium complex; also called Peptide 6 ReO complex) [CH2CO.SNLST.Hhc.VLGKLSC(CH2CO.(ε-K)GCE.amide)ELHKLQTYPRTNTGSGTP.amide•ReO] | 3.3 | 0.33 | 
2 | {CH2CO}-SNLST[hCys]VLGKLSC([CH2CO-βDap-Lys-Cys-Lys-NH2])ELHKLQTYPRTNTGSGTP-NH2 (thioether N-6; also: ReO complex of chelator on Cys13, Oxorhenium complex; also called Peptide 9 ReO complex) [CH2CO.SNLST.Hcy.VLGKLSC(CH2CO.(β-Dap)KCK.amide)ELHKLQTYPRTNTGSGTP.amide•ReO] |  | 0.84 | 
3 | {CH2CO}-SNLST[hCys]VLGKLSC([CH2CO-Gly-Gly-Cys-Lys-NH2])ELHKLQTYPRTNTGSGTP-NH2 (thioether N-6; also: ReO complex of chelator on Cys13, Oxorhenium complex; also called Peptide 8 ReO complex) [CH2CO.SNLST.Hcy.VLGKLSC(CH2CO.GGCK.amide)ELHKLQTYPRTNTGSGTP.amide•ReO] | 4.8 | 0.83 | 
4 | {CH2CO}-SNLST[Hhc]VLGKLSC([CH2CO-βDap-Lys-Cys-Lys-NH2])ELHKLQTYPRTNTGSGTP-NH2 (thioether N-6, also called Peptide 5) [CH2CO.SNLST.Hhc.VLGKLSC(CH2CO.(β-Dap)KCK.amide)ELHKLQTYPRTNTGSGTP.amide] | 5.8 | 0.42 | 
5 | {CH2CO}-SNLST[Hhc]VLGKLSC([CH2CO-Gly-Gly-Cys-Lys-NH2])ELHKLQTYPRTNTGSGTP-NH2 (thioether N-6, also called Peptide 4) [CH2CO.SNLST.Hhc.VLGKLSC(CH2CO.GGCK.amide)ELHKLQTYPRTNTGSGTP.amide] |  |  | 2.6
6 | {CH2CO}-SNLSTCVLGKLSC([CH2CO-Gly-Gly-Cys-Lys-NH2])ELHKLQTYPRTNTGSGTP-NH2 (thioether N-6; also: ReO complex, Oxorhenium complex; also called Peptide 12 ReO complex) [CH2CO.SNLST.Cys.VLGKLSC(CH2CO.GGCK.amide)ELHKLQTYPRTNTGSGTP.amide•ReO] | 5.2 | 1 | 
7 | {CH2CO}-SNLSTCVLGKLSC([CH2CO-βDap-Lys-Cys-Lys-NH2])ELHKLQTYPRTNTGSGTP-NH2 (thioether N-6; also: ReO complex, Oxorhenium complex; also called Peptide 13 ReO complex) [CH2CO.SNLST.Cys.VLGKLSC(CH2CO.(β-Dap)KCK.amide)ELHKLQTYPRTNTGSGTP.amide•ReO] |  | 2.9 | 
8 | {CH2CO}-SNLSTCVLGKLSC([CH2CO-εLys-Gly-Cys-Glu-NH2])ELHKLQTYPRTNTGSGTP-NH2 (thioether N-6; also: ReO complex, Oxorhenium complex; also called Peptide 14 ReO complex) [CH2CO.SNLST.Cys.VLGKLSC(CH2CO.(ε-K)GCE.amide)ELHKLQTYPRTNTGSGTP.amide•ReO] | 1.9 | 2.6 | 
9 | {CH2CO}-SNLST[hCys]VLGKLSC([CH2CO-εLys-Gly-Cys-Glu-NH2])ELHKLQTYPRTNTGSGTP-NH2 (thioether N-6; also: ReO complex of chelator on Cys13, Oxorhenium complex; also called Peptide 10 ReO complex) [CH2CO.SNLST.Hcy.VLGKLSC(CH2CO.(ε-K)GCE.amide)ELHKLQTYPRTNTGSGTP.amide•ReO] |  | 0.89 | 

Second part, the binder after the results:

Row | IC50 [1] [nM] | IC50 [2] [nM] | IC50 [3] [nM] | Binder
10 |  |  | 1.6 | {CH2CO}-SNLST[Hhc]VLGKLSCELHKLQTYPRTNTGSGTP-NH2 (thioether N-6, also called Peptide 3) [CH2CO.SNLST.Hhc.VLGKLSCELHKLQTYPRTNTGSGTP.amide]
11 | 12.3 |  |  | CSNLSTCVLGKLSQELHKLQTYPRTNTGSGTP-NH2 (ligand, disulfide 1-7, Unlabeled salmon calcitonin, bought (Sigma); also called salmon CT; sCT) [CSNLSTCVLGKLSQELHKLQTYPRTNTGSGTP-NH2 (salmon calcitonin)]
12 | 8 | 2.7 |  | SNLST[Asu]VLGKLSC([CH2CO-βDap-Lys-Cys-Lys-NH2])ELHKLQTYPRTNTGSGTP-NH2 (lactam N-6; also: ReO complex of chelator on Cys13, Oxorhenium complex; also called Peptide 16 ReO complex) [SNLST.Asu.VLGKLSC(CH2CO.(β-Dap)KCK.amide)ELHKLQTYPRTNTGSGTP.amide•ReO]
13 | 7 | 0.55 |  | SNLST[Asu]VLGKLSC([CH2CO-βDap-Lys-Cys-Lys-NH2])ELHKLQTYPRTDVGAGTP-NH2 (lactam N-6; also: ReO complex of chelator on Cys13, Oxorhenium complex; also called Peptide 18 ReO complex) [SNLST.Asu.VLGKLSC(CH2CO.(β-Dap)KCK.amide)ELHKLQTYPRTDVGAGTP.amide•ReO]
